From patent US20210130436A1 (published 2021)

Tests used:
human PD-L1 [1] = biological target: T1, human PD-L1 (human, UniProt Q9NZQ7 19-290); assay: flow cytometry; PD-L1 MFI over CD28 MFI
T1 construct: also called huPD-L1; CD274
T1 sequence (Q9NZQ7 19-290): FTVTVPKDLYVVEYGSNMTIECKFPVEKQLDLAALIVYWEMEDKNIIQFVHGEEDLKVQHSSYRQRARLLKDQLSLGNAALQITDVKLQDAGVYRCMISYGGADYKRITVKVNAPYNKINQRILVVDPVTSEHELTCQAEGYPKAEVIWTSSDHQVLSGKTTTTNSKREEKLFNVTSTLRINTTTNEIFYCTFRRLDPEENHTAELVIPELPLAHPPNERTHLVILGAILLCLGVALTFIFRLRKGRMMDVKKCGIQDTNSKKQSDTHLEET

human CTLA-4 [2] = biological target: T2, human CTLA-4 (human, UniProt P16410 36-223); assay: flow cytometry on CHO cells stably expressing CTLA4; vs CD80 WT IgV-Fc
T2 construct: also called huCTLA4
T2 sequence (P16410 36-223): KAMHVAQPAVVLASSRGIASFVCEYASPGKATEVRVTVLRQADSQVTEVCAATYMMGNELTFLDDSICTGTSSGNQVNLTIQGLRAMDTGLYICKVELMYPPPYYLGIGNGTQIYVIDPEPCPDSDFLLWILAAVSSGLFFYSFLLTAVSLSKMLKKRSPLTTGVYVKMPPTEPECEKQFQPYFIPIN

human PD-L1 [3] = biological target: T1, human PD-L1; assay: flow cytometry on CHO cells stably expressing PD-L1; vs CD80 WT IgV-Fc
human CD28 [4] = biological target: T3, human CD28 (human, UniProt P10747 19-220); assay: flow cytometry on Jurkat cells (CD28); vs CD80 WT IgV-Fc
T3 construct: Endogenous CD28 on Jurkat/IL2 reporter cells

human PD-L1 [5] = biological target: T1, human PD-L1; assay: cell-based or functional assay
human PD-L1 [6] = biological target: T4, human PD-L1 (human, UniProt Q9NZQ7 19-290); assay: flow cytometry; MFI on CHO/PD-L1 over MFI on Jurkat (CD28), 33.3 nM
T4 construct: whole, on cells; also called huPD-L1
T4 sequence (Q9NZQ7 19-290): as the sequence (Q9NZQ7 19-290) above

human CTLA-4 [7] = biological target: T5, human CTLA-4 (human, UniProt P16410 36-223); assay: flow cytometry, CHO cells stably expressing huCTLA4, 33.3 nM, PE anti-human Fc
T5 construct: whole, on cells; also called huCTLA4
T5 sequence (P16410 36-223): as the sequence (P16410 36-223) above

human PD-L1 [8] = biological target: T4, human PD-L1; assay: cell-based or functional assay; remark: listed apart in the source
human PD-L1 [9] = biological target: T4, human PD-L1; assay: flow cytometry, CHO cells stably expressing huPD-L1, 33.3 nM, PE anti-human Fc
human CD28 [10] = biological target: T6, human CD28 (human, UniProt P10747 19-220); assay: flow cytometry, Jurkat/IL2 reporter cells (endogenous CD28), 33.3 nM, PE anti-human Fc
T6 construct: whole, on cells; Endogenous CD28 of Jurkat/IL2 reporter cells

[11] = biological target: T7, human CD28, endogenously expressed on Jurkat/IL2 reporter cells (human, UniProt P10747 19-220); assay: flow cytometry, Jurkat (CD28) cells, 33.3 nM; MFI relative to CD80 WT IgV-Fc
T7 construct: whole, on cells

[12] = biological target: T8, human PD-L1, expressed on CHO cells (human, UniProt Q9NZQ7 19-290); assay: flow cytometry, CHO/PD-L1 cells, 33.3 nM; MFI relative to CD80 WT IgV-Fc
T8 construct: whole, on cells; also called huPD-L1; CD274

[13] = biological target: T8, human PD-L1, expressed on CHO cells; assay: flow cytometry; MFI on PD-L1 cells over MFI on CD28 (Jurkat) cells, 33.3 nM
[14] = biological target: T9, human CTLA-4 (CTLA4), expressed on CHO cells (human, UniProt P16410 36-223); assay: flow cytometry, CHO/CTLA-4 cells, 33.3 nM; MFI relative to CD80 WT IgV-Fc
T9 construct: whole, on cells; also called huCTLA4

[15] = biological target: T10, human PD-L1, full-length, expressed on transfected HEK293 (Expi293F) cells (human, UniProt Q9NZQ7 19-290); assay: flow cytometry, Fc fusion on HEK293 cells transfected with full-length human PD-L1
T10 construct: whole, on cells; also called CD274; B7-H1

[16] = biological target: T11, human PD-L1, full length, expressed on transfected HEK293 cells (human, UniProt Q9NZQ7 19-290); assay: flow cytometry, HEK293 cells transfected with human PD-L1
T11 construct: Full-length surface expression construct from Genscript; also called CD274; B7-H1
T11 sequence (Q9NZQ7 19-290): as the sequence (Q9NZQ7 19-290) above

T8 sequence (Q9NZQ7 19-290): as above
T9 sequence (P16410 36-223): as the sequence (P16410 36-223) above
T10 sequence (Q9NZQ7 19-290): as the sequence (Q9NZQ7 19-290) above

B1: wild-type CD80 IgV-Fc (inert), Example 15 (Fc fusion, not shown: a dimerising Fc or GST)
chain: VIHVTKEVKEVATLSCGHNVSVEELAQTRIYWQKEKKMVLTMMSGDMNIWPEYKNRTIFDITNNLSIVILALRPSDEGTYECVVLKYEKDAFKREHLAEVTLSVKAD
notes: Inert Fc fusion; also called CD80 WT IgV-Fc
Ratio of PDL1:CD28 (human PD-L1 [1]): 1.6 ratio | Fold change to WT CD80 (human CTLA-4 [2]): 1 fold | Fold change to WT CD80 (human PD-L1 [3]): 1 fold | Fold change to WT CD80 (human CD28 [4]): 1 fold | Fold Increase over WT CD80-IgV-Fc, Jurkat/IL2 + CHO/OKT3/PD-L1 Reporter Assay (human PD-L1 [5]): 1 fold

B2: CD80 WT IgV-Fc (Fc fusion, not shown: a dimerising Fc or GST)
chain: VIHVTKEVKEVATLSCGHNVSVEELAQTRIYWQKEKKMVLTMMSGDMNIWPEYKNRTIFDITNNLSIVILALRPSDEGTYECVVLKYEKDAFKREHLAEVTLSVKAD
notes: also called WT CD80-IgV-Fc; wild-type CD80 IgV-Fc
Ratio of PDL1:CD28 (human PD-L1 [6]): 2 ratio | Fold change to WT CD80 (human CTLA-4 [7]): 1 fold | MFI at 33.3 nM (human CTLA-4 [7]): 1030 MFI | Fold Increase over WT CD80-IgV-Fc (Jurkat/IL2 + CHO/OKT3/PD-L1 reporter, 5.0 nM) (human PD-L1 [8]): 1 fold | Fold change to WT (human PD-L1 [9]): 1 fold | MFI at 33.3 nM (human PD-L1 [9]): 83 MFI | Fold change to WT (human CD28 [10]): 1 fold | MFI at 33.3 nM (human CD28 [10]): 41 MFI

B3: CD80 WT IgV-Fc (Fc fusion, not shown: small tags and cut ends; a dimerising Fc or GST)
chain: VIHVTKEVKEVATLSCGHNVSVEELAQTRIYWQKEKKMVLTMMSGDMNIWPEYKNRTIFDITNNLSIVILALRPSDEGTYECVVLKYEKDAFKREHLAEVTLSVKAD
notes: also called wild-type CD80 IgV-Fc
Fold change to WT CD80 [11]: 1 fold | Fold change to WT CD80 [12]: 1 fold | Ratio of PDL1:CD28 [13]: 1 ratio | Fold change to WT CD80 [14]: 1 fold

B4: variant CD80 IgV-Fc S44P/A71D (Fc fusion)
chain: VIHVTKEVKEVATLSCGHNVSVEELAQTRIYWQKEKKMVLTMMPGDMNIWPEYKNRTIFDITNNLSIVILDLRPSDEGTYECVVLKYEKDAFKREHLAEVTLSVKAD
notes: not shown: which was us
MFI at 22.2 nM [15]: 6310 MFI

B5: variant CD80 IgV-Fc E35G/K54E/A71D/L72P (Fc fusion)
chain: VIHVTKEVKEVATLSCGHNVSVEELAQTRIYWQKGKKMVLTMMSGDMNIWPEYENRTIFDITNNLSIVILDPRPSDEGTYECVVLKYEKDAFKREHLAEVTLSVKAD
notes: not shown: which one is
MFI at 22.2 nM [16]: 1580 MFI
